Results on 125 sequences are retold here after the supplement of paper PMC9112550, “Optimization of the antimicrobial peptide Bac7 by deep mutational scanning” (BMC Biology, 2022).

The data set concerns Escherichia coli TOP10. As to the kind of experiment: shrunken log2 fold change of peptide-encoding DNA abundance (4.5 h post-induction vs induction); higher = less antimicrobial activity (less host growth inhibition). To be noted: time post-induction: 4.5 h; library: site-saturation at positions 5, 18, 19, 20.
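Note: peptides expressed intracellularly from a pBAD plasmid library in pooled LB shake-flask culture, induced with 0.3% L-arabinose, DNA abundance read by NGS, three biological replicates, DESeq2 with apeglm shrinkage.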

Take RRIRFRPPRLPRPRPRPETLPRP: the “shrunken log2 fold change” value is 0.0591. On to RRIRDRPPRLPRPRPRPTIMPRP, for which the “shrunken log2 fold change” value was -0.347.

As for RRIRGRPPRLPRPRPRPTRPPRP, the “shrunken log2 fold change” value was 1.16. On to RRIRTRPPRLPRPRPRPKITPRP, for which the “shrunken log2 fold change” value is -0.464.

For the sequence RRIRTRPPRLPRPRPRPHWNPRP, the “shrunken log2 fold change” value is -0.424. On to RRIRCRPPRLPRPRPRPSSFPRP, for which the “shrunken log2 fold change” value was -0.0694. The same measure for RRIRFRPPRLPRPRPRPIMPPRP: -0.127; for RRIRARPPRLPRPRPRPVQIPRP: -0.0414; for RRIRVRPPRLPRPRPRPWPPPRP: 0.46. With RRIRMRPPRLPRPRPRPTNIPRP, the “shrunken log2 fold change” value is -0.0556. For RRIRYRPPRLPRPRPRPTGHPRP, the “shrunken log2 fold change” value was found to be 0.0155. The value for RRIRGRPPRLPRPRPRPMIRPRP was 0.147; that for RRIRERPPRLPRPRPRPGRRPRP was 0.0607. As to RRIRKRPPRLPRPRPRPPGYPRP, the “shrunken log2 fold change” value turned out to be 0.176. As to RRIRNRPPRLPRPRPRPHTPPRP, the “shrunken log2 fold change” value is -0.317. Regarding RRIRHRPPRLPRPRPRPIEDPRP, the “shrunken log2 fold change” value worked out at 0.0058. For RRIRERPPRLPRPRPRPWMWPRP, the “shrunken log2 fold change” value worked out at 0.0673. On to RRIRTRPPRLPRPRPRPKNLPRP, for which the “shrunken log2 fold change” value is -0.143. As for RRIRERPPRLPRPRPRPIQSPRP, the “shrunken log2 fold change” value was -0.642. The same measure for RRIRPRPPRLPRPRPRPAFFPRP: 0.186.

For RRIRERPPRLPRPRPRPDPWPRP, the “shrunken log2 fold change” value is -0.12. Regarding RRIRGRPPRLPRPRPRPYEKPRP, the “shrunken log2 fold change” value is -0.0149. As for RRIRCRPPRLPRPRPRPSGPPRP, the “shrunken log2 fold change” value was 0.124. The value for RRIRVRPPRLPRPRPRPMWPPRP was 0.0245; that for RRIRQRPPRLPRPRPRPHNRPRP was -0.372. As to RRIRGRPPRLPRPRPRPASEPRP, the “shrunken log2 fold change” value came out at 1.13. As for RRIRGRPPRLPRPRPRPEFWPRP, the “shrunken log2 fold change” value worked out at 2.24.

With RRIRVRPPRLPRPRPRPGTAPRP, the “shrunken log2 fold change” value came to 0.136.

For RRIRMRPPRLPRPRPRPNGDPRP, the “shrunken log2 fold change” value was 0.297. RRIRFRPPRLPRPRPRPCQYPRP: the “shrunken log2 fold change” value was -0.53. On to RRIRSRPPRLPRPRPRPLGPPRP, for which the “shrunken log2 fold change” value was found to be 0.0761. As for RRIRTRPPRLPRPRPRPFSQPRP, the “shrunken log2 fold change” value was -0.0652.

Take RRIRSRPPRLPRPRPRPNFYPRP: the “shrunken log2 fold change” value was -0.252. For RRIRNRPPRLPRPRPRPKHQPRP, the “shrunken log2 fold change” value turned out to be 0.124. Consider RRIRDRPPRLPRPRPRPGFHPRP, for which the “shrunken log2 fold change” value amounted to 0.0294. The same measure for RRIRYRPPRLPRPRPRPMSPPRP: -0.0952. The value for RRIRIRPPRLPRPRPRPTRVPRP was 0.167; that for RRIRPRPPRLPRPRPRPGNMPRP was -0.119. On to RRIRWRPPRLPRPRPRPHPYPRP, for which the “shrunken log2 fold change” value is -0.195. With RRIRNRPPRLPRPRPRPYQDPRP, the “shrunken log2 fold change” value was -0.064. For the sequence RRIRTRPPRLPRPRPRPPGGPRP, the “shrunken log2 fold change” value worked out at 0.637.

Regarding RRIRLRPPRLPRPRPRPGEWPRP, the “shrunken log2 fold change” value is -0.00947. Regarding RRIRCRPPRLPRPRPRPNPKPRP, the “shrunken log2 fold change” value is 0.055. As to RRIRGRPPRLPRPRPRPITTPRP, the “shrunken log2 fold change” value is 0.407. Consider RRIRHRPPRLPRPRPRPMYMPRP, for which the “shrunken log2 fold change” value is -0.369.

For RRIRYRPPRLPRPRPRPKRCPRP, the “shrunken log2 fold change” value came to 0.0441. On to RRIRMRPPRLPRPRPRPSLKPRP, for which the “shrunken log2 fold change” value worked out at 0.359.

As to RRIRMRPPRLPRPRPRPVRNPRP, the “shrunken log2 fold change” value is 0.0163. As to RRIRQRPPRLPRPRPRPVSTPRP, the “shrunken log2 fold change” value was -0.0279. As for RRIRDRPPRLPRPRPRPWYRPRP, the “shrunken log2 fold change” value is -0.0745. In the case of RRIRRRPPRLPRPRPRPERYPRP, the “shrunken log2 fold change” value was found to be 0.00129.

With RRIRGRPPRLPRPRPRPFVRPRP, the “shrunken log2 fold change” value is 0.0432. The same measure for RRIRIRPPRLPRPRPRPPRGPRP: 0.534; for RRIRWRPPRLPRPRPRPPSKPRP: 0.104; for RRIRARPPRLPRPRPRPFKWPRP: -0.176. The same measure for RRIRQRPPRLPRPRPRPMGDPRP: 0.0563; for RRIRCRPPRLPRPRPRPRPEPRP: 0.44. The same measure for RRIRTRPPRLPRPRPRPCKSPRP: 0.075. In the case of RRIRFRPPRLPRPRPRPGAPPRP, the “shrunken log2 fold change” value is 0.54. As to RRIRFRPPRLPRPRPRPWTDPRP, the “shrunken log2 fold change” value was -0.345. Take RRIRKRPPRLPRPRPRPGETPRP: the “shrunken log2 fold change” value stood at 0.476. Consider RRIRFRPPRLPRPRPRPKIIPRP, for which the “shrunken log2 fold change” value was -0.592. Regarding RRIRFRPPRLPRPRPRPEAKPRP, the “shrunken log2 fold change” value stood at 0.0369. Turning to RRIRYRPPRLPRPRPRPFWTPRP, the “shrunken log2 fold change” value is -0.111. With RRIRGRPPRLPRPRPRPAPIPRP, the “shrunken log2 fold change” value was 0.586.

RRIRMRPPRLPRPRPRPRLQPRP: the “shrunken log2 fold change” value stood at 0.417. The same measure for RRIRDRPPRLPRPRPRPACTPRP: 0.642. For RRIRRRPPRLPRPRPRPWWTPRP, the “shrunken log2 fold change” value came out at 0.0815. Consider RRIRIRPPRLPRPRPRPWCVPRP, for which the “shrunken log2 fold change” value is -0.698. The same measure for RRIRARPPRLPRPRPRPPPYPRP: 0.698; for RRIRKRPPRLPRPRPRPGTNPRP: 0.124; for RRIRLRPPRLPRPRPRPWFTPRP: -0.509. The same measure for RRIRFRPPRLPRPRPRPISPPRP: -0.211; for RRIRSRPPRLPRPRPRPATQPRP: 0.168; for RRIRMRPPRLPRPRPRPTNDPRP: 0.231. With RRIRWRPPRLPRPRPRPHYVPRP, the “shrunken log2 fold change” value was -0.113. In the case of RRIRIRPPRLPRPRPRPWHMPRP, the “shrunken log2 fold change” value was -0.0375. For RRIRFRPPRLPRPRPRPCDRPRP, the “shrunken log2 fold change” value is -0.179. In the case of RRIRPRPPRLPRPRPRPSIAPRP, the “shrunken log2 fold change” value is -0.131. Consider RRIRQRPPRLPRPRPRPKYPPRP, for which the “shrunken log2 fold change” value is 0.0386. For RRIRQRPPRLPRPRPRPHRYPRP, the “shrunken log2 fold change” value is -0.812.

With RRIRRRPPRLPRPRPRPLVGPRP, the “shrunken log2 fold change” value was determined as 0.239.

Turning to RRIRDRPPRLPRPRPRPNQGPRP, the “shrunken log2 fold change” value was found to be 0.125. Take RRIRWRPPRLPRPRPRPYSGPRP: the “shrunken log2 fold change” value was -0.105. With RRIRHRPPRLPRPRPRPADPPRP, the “shrunken log2 fold change” value stood at 0.0438.

For the sequence RRIRNRPPRLPRPRPRPFPFPRP, the “shrunken log2 fold change” value is -0.22.

In the case of RRIRIRPPRLPRPRPRPGEQPRP, the “shrunken log2 fold change” value was -0.0156. On to RRIRKRPPRLPRPRPRPFLHPRP, for which the “shrunken log2 fold change” value was -0.0903.

Regarding RRIRGRPPRLPRPRPRPQNYPRP, the “shrunken log2 fold change” value was -0.153.

Consider RRIRLRPPRLPRPRPRPMMIPRP, for which the “shrunken log2 fold change” value is -0.203. Take RRIRLRPPRLPRPRPRPSIIPRP: the “shrunken log2 fold change” value was -0.735. RRIRNRPPRLPRPRPRPLMCPRP: the “shrunken log2 fold change” value worked out at 0.141. RRIRFRPPRLPRPRPRPPTNPRP: the “shrunken log2 fold change” value worked out at 0.236. The same measure for RRIRTRPPRLPRPRPRPQYGPRP: -0.082. The same measure for RRIRPRPPRLPRPRPRPFCKPRP: -0.511; for RRIRYRPPRLPRPRPRPYIEPRP: -0.469; for RRIRQRPPRLPRPRPRPSAAPRP: 0.486.

On to RRIRQRPPRLPRPRPRPDCPPRP, for which the “shrunken log2 fold change” value is -0.283. On to RRIRNRPPRLPRPRPRPATPPRP, for which the “shrunken log2 fold change” value is 0.537. For RRIRMRPPRLPRPRPRPGQFPRP, the “shrunken log2 fold change” value amounted to 0.0853. The same measure for RRIRDRPPRLPRPRPRPECAPRP: 1.58; for RRIRPRPPRLPRPRPRPGGFPRP: 0.318. Take RRIRLRPPRLPRPRPRPLAEPRP: the “shrunken log2 fold change” value came to 0.289.

RRIRERPPRLPRPRPRPMENPRP: the “shrunken log2 fold change” value was -0.104. In the case of RRIRGRPPRLPRPRPRPVPKPRP, the “shrunken log2 fold change” value stood at 0.92.

Consider RRIRPRPPRLPRPRPRPQSKPRP, for which the “shrunken log2 fold change” value is -0.237. With RRIRGRPPRLPRPRPRPDTKPRP, the “shrunken log2 fold change” value was found to be 0.239.

Regarding RRIRFRPPRLPRPRPRPADEPRP, the “shrunken log2 fold change” value is 0.173. The value for RRIRERPPRLPRPRPRPKAHPRP was 0.107.

With RRIRERPPRLPRPRPRPLKKPRP, the “shrunken log2 fold change” value was found to be 0.0403. Take RRIRRRPPRLPRPRPRPKEDPRP: the “shrunken log2 fold change” value was 0.196. With RRIRSRPPRLPRPRPRPQPEPRP, the “shrunken log2 fold change” value was -0.279. With RRIRVRPPRLPRPRPRPLRFPRP, the “shrunken log2 fold change” value is 0.571. The value for RRIRPRPPRLPRPRPRPPNEPRP was -0.0989. As for RRIRPRPPRLPRPRPRPVISPRP, the “shrunken log2 fold change” value was -0.00579. For RRIRVRPPRLPRPRPRPHVPPRP, the “shrunken log2 fold change” value is -0.044. In the case of RRIRMRPPRLPRPRPRPLNEPRP, the “shrunken log2 fold change” value was 0.216. Consider RRIRKRPPRLPRPRPRPQTPPRP, for which the “shrunken log2 fold change” value came to 1.39.

On to RRIRCRPPRLPRPRPRPFHKPRP, for which the “shrunken log2 fold change” value was -0.0775.

Consider RRIRTRPPRLPRPRPRPKMWPRP, for which the “shrunken log2 fold change” value was determined as 0.307. RRIRFRPPRLPRPRPRPPKKPRP: the “shrunken log2 fold change” value was 0.847. Regarding RRIRRRPPRLPRPRPRPDIMPRP, the “shrunken log2 fold change” value is -0.146. As to RRIRKRPPRLPRPRPRPKHYPRP, the “shrunken log2 fold change” value was -0.283. Take RRIRIRPPRLPRPRPRPQKKPRP: the “shrunken log2 fold change” value was -0.0235. As to RRIRLRPPRLPRPRPRPYYEPRP, the “shrunken log2 fold change” value was -0.493.
